B1: humanized CD26-CD3 BiTE bispecific antibody 19G300 (bispecific antibody)
scFv: DIQMTQSPSSLSASPGDRVTISCRASQDIGNFLTWYQQKPGQAPKLLIYYRSRLHSGVPSRFSGSGSGTDYTLTISSLEPEDFATYYCQQDNTLPWTFGQGTKVEIKGGGGSGGGGSGGGGSEVQLVESGGGLVQPGGSLRLSCAASGFTFTNYYMSWVRQAPGKGLEWVAFIRDKANGYTTEYSASVKGRFTISRDNSKNTLYLQMNSLRAEDTAVYYCARVLRYLGYNFDYWGQGTLVTVSSGGGGSDVQLVQSGAEVKKPGASVKVSCKASGYTFTRYTMHWVRQAPGQGLEWIGYINPSRGYTNYADSVKGRFTITTDKSTSTAYMELSSLRSEDTATYYCARYYDDHYCLDYWGQGTTVTVSSGGGGSGGGGSGGGGSDIVLTQSPATLSLSPGERATLSCRASQSVSYMNWYQQKPGKAPKRWIYDTSKVASGVPARFSGSGSGTDYSLTINSLEAEDAATYYCQQWSSNPLTFGGGTKVEIK
notes: Single chain of about 55 kDa; also called humanized bispecific antibody 19G300
B2: full-length humanized anti-CD26 antibody 21G428-429 (antibody, human IgG1, kappa, V domains shown)
VH: EVQLVQSGAELVKPGASVKLSCAASGFNIKDTYIYWVRQAPGQGLEWVGRIEPMNGNTKYDPKFQGRFTMTANTSKNTAYLQLSSLRSEDTAVYYCSRGGWLLLYVMDYWGQGTLVTVSS
VL: DIVMTQSPSSLSVTPGERVSISCRSDKSLLHSNGNTYLYWFLQKPGQSPQVLIYRMSNLASGVPDRFSGSGSGTDFTLTISRVEAEDVGVYYCFQQLEYPYTFGQGTKLEIKR
notes: Derived from mouse antibody No. 62; About 150 kDa

Legend:
[1] = biological target: CD3 protein; test: BLI (ForteBio), biotinylated CD3 protein on SA biosensors, antibody at 500 nM
Procedure: CD3 protein was first biotinylated using EZ-Link NHS-PEG12-Biotin, and the biotinylated protein was immobilized on SA biosensors. The biosensors were then equilibrated in 1× Kinetics Buffer, followed by incubation with the humanized bispecific antibody solution to allow binding. The concentration of the humanized bispecific antibody solution was 500 nM. Afterward, the biosensors were placed in 1× Kinetics Buffer for dissociation. Data were analyzed using Fortebio Data Analysis 8.0 software to calculate the affinity constant values.

[2] = biological target: T1, CD26 on cells (786-0, OS-RC-2, UT16, NCI-H226 tumor cells; PBMCs) (human, UniProt P27487 1-766); test: flow cytometry, PBMCs in a mixed system with 786-0 cells, antibody at 0.3 ug/mL
T1 construct: whole, on cells; The background says that CD26 commonly exists as a homodimer; also called CD26 target on tumor cells; CD26 on PBMCs
T1 sequence (P27487 whole entry): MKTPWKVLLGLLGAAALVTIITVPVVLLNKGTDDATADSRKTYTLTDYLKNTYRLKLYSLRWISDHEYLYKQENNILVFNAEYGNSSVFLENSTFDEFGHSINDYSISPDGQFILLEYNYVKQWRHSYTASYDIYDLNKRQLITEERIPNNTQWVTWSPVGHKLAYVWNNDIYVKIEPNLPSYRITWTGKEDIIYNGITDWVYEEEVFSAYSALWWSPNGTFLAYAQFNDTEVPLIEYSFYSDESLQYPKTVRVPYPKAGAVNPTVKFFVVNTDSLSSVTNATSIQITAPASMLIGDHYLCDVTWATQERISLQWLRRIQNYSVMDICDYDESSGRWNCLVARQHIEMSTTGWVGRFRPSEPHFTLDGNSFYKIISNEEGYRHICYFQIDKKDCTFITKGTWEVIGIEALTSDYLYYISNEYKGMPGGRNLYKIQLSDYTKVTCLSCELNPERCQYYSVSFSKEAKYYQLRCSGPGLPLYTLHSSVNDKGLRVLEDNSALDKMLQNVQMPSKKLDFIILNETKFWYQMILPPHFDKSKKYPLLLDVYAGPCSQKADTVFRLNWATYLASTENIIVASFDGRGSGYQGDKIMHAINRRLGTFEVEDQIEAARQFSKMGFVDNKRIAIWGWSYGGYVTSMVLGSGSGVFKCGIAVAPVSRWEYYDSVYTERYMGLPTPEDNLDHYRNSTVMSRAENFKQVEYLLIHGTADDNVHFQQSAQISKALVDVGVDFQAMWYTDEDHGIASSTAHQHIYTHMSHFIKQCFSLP

Binder	Kd [1]	koff [1]	kon [1]	binding result [2]
B1	1.61 nM	0.000137 s⁻¹	84800 M⁻¹ s⁻¹	–
B2	–	–	–	binds

Source: patent US20260217852A1 (ZONHON BIOPHARMA INSTITUTE, published 2026)
